Experimental data from patent publication US20230279130A1.

Molecular target: full length human CCR8 (hCCR8) (human) (UniProt P51685)

B1: benchmark anti-CCR8 antibody 4A19 (Bristol Myers Squibb) (antibody, from another filing, IgG1, V domains shown)
VH: QVQLVQSGAEVKKPGASVKVSCKASGYTFTDSEMHWVRQATGQGLEWMGAIQPETGGTAYNQKFKARVTMTRDTSISTAYMELSSLRSEDTAVYYCARRRRNFDYWGQGTLVTVSS
VL: DIVMTQTPLSLSVTPGQPASISCRSSQSLFHSSGNTYLHWYLQKPGQPPQLLIYKVSNRFSGVPDRFSGSGSGTDFTLKISRVEAEDVGVYYCSQSTHVPFTFGQGTKLEIKR
  IC50, inhibition of chemotaxis of hCCR8-transfected P815 cells to 1 nM CCL1 (intact IgG1, Cell Titer Glo): 6.53 ng/mL
